Assay results as given in patent publication US10184115B2, “Mutated cellobiose dehydrogenase with increased substrate specificity” (DIRECTSENS GMBH, priority 2012, dated 2019).
Positions count from the first letter of the chain named. In names and notes the source's numbering stands.

Tests used:
[1] = substrate: OC[C@H]1OC(O)[C@H](O)[C@@H](O)[C@@H]1O; test: Steady-state kinetics, DCIP assay: C. thermophilus flavodehydrogenase domain C310Y; assay type: biochemical, Corynascus thermophilus; conditions: other: apparent, pH 5.5, 30° C.
Method: (§1) Enzyme activity was assayed at 30° C. using either the DCIP (Karapetyan et al., 2005 Journal of Biotechnology 121: 34-48) or cytochrome c (Canevascini et al., 1991, European Journal of Biochemistry 198: 43-52) as electron acceptor. […] Stock solutions of carbohydrates used for kinetic measurements were prepared in the respective buffer and allowed to stand overnight for mutarotation, while stock solutions of electron acceptors were prepared in water and immediately used. The reaction stoichiometry is 1 for the two-electron acceptor DCIP (1 mole of DCIP reduced per mole of carbohydrate oxidized), but 2 for the one-electron acceptor cytochrome c. Kinetic constants were calculated by fitting the observed data to the Henri-Michaelis-Menten equation or to the adapted model for substrate inhibition using nonlinear least-squares regression and the program SigmaPlot (Systat Software, San Jose, Calif., USA).
(§2) Recombinant wild-type CDH as well as variants were produced in 1 L baffled flasks. Precultures were grown overnight in 30 mL of YPD medium at 30° C. and 120 rpm. After approximately 18 hours the precultures were transferred into 1 L baffled flasks containing 200 mL BMGY medium without methanol. Induction with methanol was started immediately using a multichannel peristaltic pump (Minipuls Evolution, Gilson, Middleton, Wis., USA). Each flask was supplied eight times a day with methanol yielding a total concentration of 2% (v/v) methanol per day. Increase in activity was monitored using the DCIP and the cytochrome c enzyme assays. Cultivation was stopped at day five of methanol induction, cells removed by centrifugation (4000 rpm, 20 min) and the supernatant set to a final ammonium sulfate concentration of 20%.
(§3) Enzymes were purified to homogeneity in a two-step purification. The sample was loaded on a 20 mL PHE Sepharose FF column (HR26/20) equilibrated with 50 mM Na-acetate buffer pH 5.5 containing 20% ammonium sulfate. Proteins were eluted by increasing the concentration of the elution buffer (50 mM Na-acetate buffer pH 5.5) from 0 to 100% in 5 column volumes and fractions containing CDH activity were pooled. After diafiltration with a polyethersulfone flat-stack cross flow module with a cut-off of 10 kDa (Viva Flow 50, Sartorius, Göttingen, Germany) until conductivity of 5 mS cm^−1 in 20 mM Na-acetate pH 5.5 the samples were loaded on a 20 mL Q-Source column (HR26/20) equilibrated with a 20 mM Na-acetate buffer pH 5.5. CDH was eluted by increasing the concentration of the elution buffer (50 mM Na-acetate buffer pH 5.5 containing 0.5 M NaCl) from 0 to 100% in 50 column volumes. Fractions were tested for CDH activity and pooled according to the highest Reinheitszahl (RZ, calculated from the absorbance ratio 420 nm/280 nm). Purified enzymes were concentrated and diafiltered in 50 mM citrate buffer, pH 5.5, aliquoted and kept at 4° C. for further use.

[2] = substrate: OC[C@H]1O[C@H](O[C@H]2[C@H](O)[C@@H](O)C(O)O[C@@H]2CO)[C@H](O)[C@@H](O)[C@@H]1O; test: as above; assay type: biochemical, Corynascus thermophilus; conditions: other: apparent, pH 5.5, 30° C.
Method: as §1, §2, §3

[3] = substrate: OC[C@H]1O[C@H](O[C@H]2[C@H](O)[C@@H](O)C(O)O[C@@H]2CO)[C@H](O)[C@@H](O)[C@@H]1O; test: purified protein, by the assay type; conditions: other: apparent, wt flavodehydrogenase domain, DCIP assay, pH 5.5, 30° C.
[4] = substrate: OC[C@H]1OC(O)[C@H](O)[C@@H](O)[C@@H]1O; test: Steady-state kinetics, DCIP assay: C. thermophilus CDH C310Y; assay type: biochemical, Corynascus thermophilus; conditions: other: apparent, pH 5.5, 30° C.
Method: as §1, §3

[5] = substrate: OC[C@H]1O[C@H](O[C@H]2[C@H](O)[C@@H](O)C(O)O[C@@H]2CO)[C@H](O)[C@@H](O)[C@@H]1O; test: as above; assay type: biochemical, Corynascus thermophilus; conditions: other: apparent, pH 5.5, 30° C.
Method: as §1, §3

[6] = substrate: OC[C@H]1O[C@H](O[C@H]2[C@H](O)[C@@H](O)C(O)O[C@@H]2CO)[C@H](O)[C@@H](O)[C@@H]1O; test: Steady-state kinetics, DCIP assay: M. thermophilum CDH N313S; assay type: biochemical, Myriococcum thermophilum; conditions: other: apparent, pH 4.5, 30° C.
Method: as §1, §3

[7] = substrate: OC[C@H]1O[C@H](O[C@H]2[C@H](O)[C@@H](O)C(O)O[C@@H]2CO)[C@H](O)[C@@H](O)[C@@H]1O; test: Steady-state kinetics, DCIP assay: M. thermophilum CDH N721D; assay type: biochemical, Myriococcum thermophilum; conditions: other: apparent, pH 4.5, 30° C.
Method: as §1, §3

[8] = substrate: OC[C@H]1OC(O)[C@H](O)[C@@H](O)[C@@H]1O; test: Steady-state kinetics, DCIP assay: M. thermophilum CDH W316R; assay type: biochemical, Myriococcum thermophilum; conditions: other: apparent, pH 4.5, 30° C., ~ values only estimated by non linear regression
Method: (§4) Enzyme activity was assayed at 30° C. using either the DCIP (Karapetyan et al., 2005 Journal of Biotechnology 121: 34-48) or cytochrome c (Canevascini et al., 1991, European Journal of Biochemistry 198: 43-52) as electron acceptor. […] Stock solutions of carbohydrates used for kinetic measurements were prepared in the respective buffer and allowed to stand overnight for mutarotation, while stock solutions of electron acceptors were prepared in water and immediately used. The reaction stoichiometry is 1 for the two-electron acceptor DCIP (1 mole of DCIP reduced per mole of carbohydrate oxidized), but 2 for the one-electron acceptor cytochrome c. Kinetic constants were calculated by fitting the observed data to the Henri-Michaelis-Menten equation or to the adapted model for substrate inhibition using nonlinear least-squares regression and the program SigmaPlot (Systat Software, San Jose, Calif., USA). […]
(§5) Recombinant wild-type CDH as well as variants were produced in 1 L baffled flasks. […] Increase in activity was monitored using the DCIP and the cytochrome c enzyme assays. […]
(§6) Enzymes were purified to homogeneity in a two-step purification. […] Fractions were tested for CDH activity and pooled according to the highest Reinheitszahl (RZ, calculated from the absorbance ratio 420 nm/280 nm). […]

[9] = substrate: OC[C@H]1OC(O)[C@H](O)[C@@H](O)[C@@H]1O; test: Steady-state kinetics, DCIP assay: M. thermophilum CDH R622N; assay type: biochemical, Myriococcum thermophilum; conditions: other: apparent, pH 4.5, 30° C., ~ values only estimated by non linear regression
Method: as §4, §5, §6

[10] = substrate: OC[C@H]1OC(O)[C@H](O)[C@@H](O)[C@@H]1O; test: Steady-state kinetics, DCIP assay: M. thermophilum CDH W316L; assay type: biochemical, Myriococcum thermophilum; conditions: other: apparent, pH 4.5, 30° C., ~ values only estimated by non linear regression
Method: as §4, §5, §6

[11] = substrate: OC[C@H]1O[C@H](O[C@H]2[C@H](O)[C@@H](O)C(O)O[C@@H]2CO)[C@H](O)[C@@H](O)[C@@H]1O; test: Steady-state kinetics, DCIP assay: M. thermophilum CDH wt; assay type: biochemical, Myriococcum thermophilum; conditions: other: apparent, pH 4.5, 30° C.
Method: as §1, §3

B1: Corynascus thermophilus CDH flavodehydrogenase domain (amino acids 249-787 of SEQ ID NO: 7) variant C310Y (C310YDH) (Thermothelomyces fergusii; C310Y) (protein)
chain: YDYIVVGAGAGGITVADKLSEAGHKVLLIEKGPPSTGLWNGTMKPEWLEGTDLTRFDVPGLYNQIWVDSAGIACTDTDQMAGCVLGGGTAVNAGLWWKPHPADWDDNFPHGWKSSDLADATERVFSRIPGTWHPSQDGKLYRQEGFEVISQGLANAGWREVDANQEPSEKNRTYSHSVFMFSGGERGGPLATYLASAAQRSNFNLWVNTSVRRAIRTGPRVSGVELECLADGGFNGTVNLKEGGGVIFSAGAFGSAKLLLRSGIGPEDQLEIVASSKDGETFISKNDWIKLPVGHNLIDHLNTDLIITHPDVVFYDFYAAWDNPITEDKEAYLNSRSGILAQAAPNIGPLMWEEVTPSDGITRQFQWTCRVEGDSSKTNSTHAMTLSQYLGRGVVSRGRMGITSGLTTTVAEHPYLHNDGDLEAVIQGIQNVVDALSQVPDLEWVLPPPNTTVEEYVNSLIVSPANRRANHWMGTAKMGLDDGRSGGSAVVDLNTKVYGTDNLFVVDASIFPGMSTGNPSAMIVIVAEQAAQRILSLRY
B1 was tested, and the Km [1] was 37.1 mM, the kcat [1] was 17.6 s⁻¹ and the kcat/Km [1] was 474.4 M⁻¹ s⁻¹. For the same protein, the Km [2] was 51.86 mM, the kcat [2] was 0.69 s⁻¹ and the kcat/Km [2] was 13.3 M⁻¹ s⁻¹.

B2: Corynascus thermophilus CDH flavodehydrogenase domain, recombinant wild type (wtDH), amino acids 249-787 of SEQ ID NO: 7 (Thermothelomyces fergusii) (protein)
chain: B1 chain with Y62C
B2 showed a Km [3] of 2.89 mM.

B3: Corynascus thermophilus cellobiose dehydrogenase (CDH, SEQ ID NO: 7) variant C310Y (Thermothelomyces fergusii; C310Y) (protein)
chain: QMTEGTYTHEATGITFKTWTPSDGSTFTFGLALPGDALTNDATEYIGLLRCQITDPSSPGYCGISHGQSGQMTQALLLVAWASEDVVYTSFRYATGYTLPELYTGDAKLTQIASSVSGDSFEVLFRCENCFSWDQNGATGSVSTSNGALVLGYAASKSGLTGATCPDTAEFGFHNNGFGQWGAVLEGATSDSYEEWAQLATITPPTTCDGNGPGDKVCVPAPEDTYDYIVVGAGAGGITVADKLSEAGHKVLLIEKGPPSTGLWNGTMKPEWLEGTDLTRFDVPGLYNQIWVDSAGIACTDTDQMAGCVLGGGTAVNAGLWWKPHPADWDDNFPHGWKSSDLADATERVFSRIPGTWHPSQDGKLYRQEGFEVISQGLANAGWREVDANQEPSEKNRTYSHSVFMFSGGERGGPLATYLASAAQRSNFNLWVNTSVRRAIRTGPRVSGVELECLADGGFNGTVNLKEGGGVIFSAGAFGSAKLLLRSGIGPEDQLEIVASSKDGETFISKNDWIKLPVGHNLIDHLNTDLIITHPDVVFYDFYAAWDNPITEDKEAYLNSRSGILAQAAPNIGPLMWEEVTPSDGITRQFQWTCRVEGDSSKTNSTHAMTLSQYLGRGVVSRGRMGITSGLTTTVAEHPYLHNDGDLEAVIQGIQNVVDALSQVPDLEWVLPPPNTTVEEYVNSLIVSPANRRANHWMGTAKMGLDDGRSGGSAVVDLNTKVYGTDNLFVVDASIFPGMSTGNPSAMIVIVAEQAAQRILSLRY
Protein B3 has a Km [4] of 37.5 mM, a kcat [4] of 19.67 s⁻¹ and a kcat/Km [4] of 524.5 M⁻¹ s⁻¹. For the same protein, the Km [5] was 80.0 mM, the kcat [5] was 0.95 s⁻¹ and the kcat/Km [5] was 12 M⁻¹ s⁻¹.

B4: Myriococcum thermophilum cellobiose dehydrogenase (CDH, SEQ ID NO: 1) variant N313S (Thermothelomyces myriococcoides; N313S) (protein)
chain: QNNVPNTFTDPDSGITFNTWGLDEDSPQTQGGFTFGVALPSDALTTDASEFIGYLKCARNDESGWCGISLGGPMTNSLLITAWPHEDTVYTSLRFATGYAMPDVYEGDAEITQVSSSVNSTHFSLIFRCKNCLQWSHGGSSGGASTSGGVLVLGWVQAFDDPGNPTCPEQITLQQHDNGMGIWGAQLNTDAASPSYTDWAAQATKTVTGDCEGPTETSVVGVPVPTGVSFDYIVVGGGAGGIPAADKLSEAGKSVLLIEKGFASTANTGGTLGPEWLEGHDLTRFDVPGLCSQIWVDSKGIACEDTDQMAGCVLGGGTAVNAGLWFKPYSLDWDYLFPDGWKYNDVQPAINRALSRIPGTDAPSTDGKRYYQEGFEVLSKGLAAGGWTSVTANNAPDKKNRTFAHAPFMFAGGERNGPLGTYFQTAKKRNNFDVWLNTSVKRVIREGGHITGVEVEPFRDGGYEGIVPVTKVTGRVILSAGTFGSAKILLRSGIGPEDQLEVVAASEKDGPTMIGNSSWINLPVGYNLDDHLNTDTVISHPDVVFYDFYEAWDDPIESDKNSYLESRTGILAQAAPNIGPMFWEEIVGADGIVRQLQWTARVEGSLGAPNGHTMTMSQYLGRGATSRGRMTITPSLTTIVSDVPYLKDPNDKEAVIQGIINLQNALQNVANLTWLFPNSTITPREYVESMVVSPSNRRSNHWMGTNKLGTDDGRKGGSAVVDLDTRVYGTDNLFVIDASIFPGVPTTNPTSYIVVAAEHASSRILALPDLEPVPKYGQCGGREWTGSFVCADGSTCEYQNEWYSQCL
B4 showed a Km [6] of 52 mM, a kcat [6] of 1.3 s⁻¹ and a kcat/Km [6] of 25 M⁻¹ s⁻¹.

B5: Myriococcum thermophilum cellobiose dehydrogenase (CDH, SEQ ID NO: 1) variant N721D (Thermothelomyces myriococcoides; N721D) (protein)
chain: B4 chain with S292N, N700D
B5 showed a Km [7] of 6.1 mM, a kcat [7] of 0.08 s⁻¹ and a kcat/Km [7] of 13.2 M⁻¹ s⁻¹.

B6: Myriococcum thermophilum cellobiose dehydrogenase (CDH, SEQ ID NO: 1) variant W316R (Thermothelomyces myriococcoides; W316R) (protein)
chain: B4 chain with S292N, W295R
In the case of B6, the kcat [8] is reported as 1.2 s⁻¹ and the kcat/Km [8] is reported as 0.34 M⁻¹ s⁻¹.

B7: Myriococcum thermophilum cellobiose dehydrogenase (CDH, SEQ ID NO: 1) variant R622N (Thermothelomyces myriococcoides; R622N) (protein)
chain: B4 chain with S292N, R601N
For B7, the kcat [9] was 13.1 s⁻¹ and the kcat/Km [9] was 6.0 M⁻¹ s⁻¹.

B8: Myriococcum thermophilum cellobiose dehydrogenase (CDH, SEQ ID NO: 1) variant W316L (Thermothelomyces myriococcoides; W316L) (protein)
chain: B4 chain with S292N, W295L
With B8 the kcat [10] was 9.9 s⁻¹ and the kcat/Km [10] was 2.8 M⁻¹ s⁻¹.

B9: Myriococcum thermophilum cellobiose dehydrogenase (CDH), recombinant wild type, SEQ ID NO: 1 (Thermothelomyces myriococcoides) (protein)
chain: B4 chain with S292N
Protein B9 has a Km [11] of 6.8 mM, a kcat [11] of 0.32 s⁻¹ and a kcat/Km [11] of 47 M⁻¹ s⁻¹.
